# According to the nanobody polyreactivity screen of Harvey et al. (2022):
# Assay: yeast display, Sf9 membrane polyspecificity reagent, FACS + sequencing; frameworks hold sequencing errors
# Outline: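 A synthetic nanobody library was expressed on Saccharomyces cerevisiae BJ5465 by galactose induction for 36–48 hours. The library was stained for 1 hour at 4 °C with 10% biotinylated, detergent-solubilized Sf9 membrane reagent and enriched with streptavidin microbeads before FACS. Low and high (top ~1%) gates were set on anti-HA fluorescence for expression and streptavidin fluorescence for reagent binding, and each polyreactivity label reflects the gate of origin.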
row,Sequence,polyreactivity (PSR sort gate)
1,QFQLVESGGGLVQAGGSLRLSCAASGRTFRGYAMGWYRQAPGKERELVAAITWRGGSTYYADSVKGRFTISRDNAKNTVYLQMNSLKPEDTAVYYCNTLVWSYLGGYYSRFDYWGQGTQVTVSS,high polyreactivity
2,QFQLVESGGGLVQAGGSLRLSCAASGRTFRYYAMGGYIQAPGKERELVGAITTGSSTYYADSVKGRFTISRDNAKNTVYLQMNSLKTEDTAVYYCHVFQGTRYGYWGQGTKVTVSS,low polyreactivity
3,QFQLVESGGGLVQAGGSLRLSCAASGRTFRYYTMGWYRQAPGKEREFVAVITVNGGSTYYADSVKGRFTISRDNAKNTVYLQMNSLKPEDTAVYYCAKSYGSRHRYWPLYYWGQGTQVTVSS,high polyreactivity
4,QFQLVESGGGLVQAGGSLRLSCAASGRTFVPYVMGWYRQAPGKERELVASITSGGSTYYADSVKGRFTISRDNAKNTVYLQMNSLNPEDTAVYYCATRQSAERWGYYYWGQGTQVTVSS,low polyreactivity
5,QFQLVESGGGLVQAGGSLRLSCAASGRTFYVNAMGWYRPSPGKERELVAGISFSDGSTYYADSVKGRFTISRDNAKNTVYLQMNSLKPEDTAVYYCATVGAFDIYYGYGYWGQGTQVTVSS,low polyreactivity
6,QFQLVESGGGLVQAGGSLRLSCAASGRTFYYYVMGWYRQAPGKERELVAAITIRGGSTYYADSVKGRFTISRDNAKNTVYLQMNSLKPEDTAVYYCNARGGSSTYGNYYWGQGTQVTVSS,low polyreactivity
7,QFQLVESGGGLVQAGGSLRLSCAASGSIFDAYAMGWYRQAPGKERELVPAITYSGGSTYYADSVKGRFTISRDNAKNTVYLQMNSLKPEDTAVYYCNTDSRVRTWFRAFTFDSWGQGTQVTVSS,low polyreactivity
8,QFQLVESGGGLVQAGGSLRLSCAASGSIFDRNAMGWYRQAPGKERELVAAITSGGSTYYADSVKGRFTISRDNAKNTVYLQMNSLKPEDNAVYYCNADTDPPVPLYYWGQGTQVTVSS,low polyreactivity
9,QFQLVESGGGLVQAGGSLRLSCAASGSIFFYYAMGWYRQAPGKERELVAAITFTGGSTYYADSVKGRFTISRDNAKNTVYLQMNSLKPEDTAVYYCADYWYYGDEYVYWGQGTQVTVSS,high polyreactivity
10,QFQLVESGGGLVQAGGSLRLSCAASGSIFIYYAMGWYRQAPGKEREFVAAITRSGGSTFYADSVKGRFTISRDNAKNTVYLQMNSLKPEDTAVYYCATSYEGYYSIIGNKYDYWGQGTQVTVSS,high polyreactivity
11,QFQLVESGGGLVQAGGSLRLSCAASGSIFLWYAMGWYRQAPGKERELVAVITSSGGTTYYADSVKGRFTISRDNAKNTVYLQMNCMKPEDNAVYYSAADFYRHPPGSLTKLYYYWGQGTQVTVSS,low polyreactivity
12,QFQLVESGGGLVQAGGSLRLSCAASGSIFSVYAMGWYRQAPGKERELVAAITNRGGSTYYADSVKGRFTISRDNAKNTVYLQMNSLKPEDTAVYYCARGPVSYGGLYDYWGQGTQVIVSS,low polyreactivity
13,QFQLVESGGGLVQAGGSLRLSCAASGSIFSYNAMGWYIQAPGKERELVASITSGGRTYYADSVKGRFTISRDNAKNTVYLQMYSLKPEDTAVYYCAAYQTGLHGFYSWGQGTQVTVSS,high polyreactivity
14,QFQLVESGGGLVQAGGSLRLSCAASGSIFVLYAMGWYRQAPGKERELVAAITSAGSTYYADSVKGRFTISRDNAKNTVYLQMNSLKPEDTAVYYCAAGFYGYARHTWYNDWGQGTQVTVSS,high polyreactivity
15,QFQLVESGGGLVQAGGSLRLSCAASGSIFYYNAMGWYRQAPGKEPELVAAINSGGTTYYADSVKGRFTISRDNAKNTVYVLMNSLKPEDTAVYYCAARTTRRSRYKYDYWGQGTQVSVSS,high polyreactivity
16,QFQLVESGGGLVQAGGSLRLSCAASGSIIGPYAMGWYRQAPVKERELVAVISSGDSKNYADSVKGRFTISRDNAKNTVYLQMNSLKQEDNEVSYCRCKYDVAHHFWVYRYDYWGHGTQVTVSS,low polyreactivity
17,QFQLVESGGGLVQAGGSLRLSCAASGSTFIYYAMGWYRQAPGKDRELVAAISGCGASTYYADSVKGGFTISRDNAKNTVYLQMNSLKPEDTAVYYCHFYRWRGYDYWGQGTQVTVSS,high polyreactivity
